# Data: the DeepSol protein solubility set
# Experiment: soluble on expression in E. coli; label from the status in PepcDB or PDB records
row,Sequence,soluble on expression in E. coli
1,MGSDKIHHHHHHMSAFYDLYETPDPNDTGEKQPLHARIVPSGTYSKKDFIERVSRHQPFPHNIIEGVLGAVVDELAEALADGYIVELGELGHFSISLKCTHKVMTKKEIRAESIRFDNVHLRTSKEFKKKIKREIELERVENSNEKTHNAKISIEDRLQMLQEFLKKNGGITRIEYSRLTGLPRLKAIDDLNTFIKEGTLRKRGAGRTVFYVWKQKE,not soluble
2,MHHHHHHSSGVDLGTENLYFQSMAARVLIIGSGGREHTLAWKLAQSHHVKQVLVAPGNAGTACSEKISNTAISISDHTALAQFCKEKKIEFVVVGPEAPLAAGIVGNLRSAGVQCFGPTAEAAQLESSKRFAKEFMDRHGIPTAQWKAFTKPEEACSFILSADFPALVVKASGLAAGKGVIVAKSKEEACKAVQEIMQEKAFGAAGETIVIEELLDGEEVSCLCFTDGKTVAPMPPAQDHKRLLEGDGGPNTGGMGAYCPAPQVSNDLLLKIKDTVLQRTVDGMQQEGTPYTGILYAGIMLTKNGPKVLEFNCRFGDPECQVILPLLKSDLYEVIQSTLDGLLCTSLPVWLENHTALTVVMASKGYPGDYTKGVEITGFPEAQALGLEVFHAGTALKNGKVVTHGGRVLAVTAIRENLISALEEAKKGLAAIKFEGAIYRKDIGFRAIAFLQ,soluble
3,AHHHHHHGSITRGRVWKFGDNISTDAITPGRYNLTKDPNELAKIAFIEERPEFSKEVKPGDVVVGGKNFGIGSSRESAALALKAAGVGGVIAKSFGRIFFRNAVNLGLPLLIGNTDPLLDGEIVEVNWRSGEVKKEDGEVLKFKPLDSFLLAIVEEGGIIEYIRRRGDLWIQ,soluble
4,MNRYRQLAELFKTQIQQNTWRAGEKLPSVRVTSRNHSVSAGTVLQAYQLLEAQGWVAAKPQSGYFVTAELDRLEPSPPATSVYRSNINDELYDYLKNQASPDAMKFGSAFPDPALFPLDALNRNLASSGRKMGPETLLDNLPPGSESLRRLIAQRYIQQGMVLTHDDIVITSGALEALNLSLQAVTQPGDTIVVESPTFYGALQAIERLGLKAIEISVDPRIGHSLQQIEAAFTDHDVRACWLMTNFHNPTGMSLNDEQKQRIVELADKHDVYLIEDDVYSELYFSNKKPSSLRTFDTQDRVLHCGSFSKSLCPGYRLGWVVNKRFNEHLQKLQLISTLSGSAPIQQGIAHYLQNDSYDNHLRKLRKNLEQRQSTFIELIGKYFPKSIHYTQPEGGYFLWVELPESKCGKAIYQKLLEDNITVAFGKLFSVGTDYENYLRLNTSLPCNDELEEAVKTIGELLH,not soluble
5,MTWLDEKGRFAIYEAPQNCPYLGTIGACYEFGSLPVILMFPELEKSFLKLLIRHIREDGYVPHDLGYHSLDSPIDGTTSPPRWKDMNPSLILLVYRYFKFTNDIEFLKEVYPILVKVMDWELRQCKGNLPFMEGEMDNAFDATIIKGHDSYTSSLFIGSLIAMREIAKLVGDSNYVDFISEKLSSAREAFRRMFNGRYFKAWDSVDNASFLAQLYGEWFTTLVGLEDIVEEDIIKKALESIIRLNGNASPHCVPNLVDDNGKIVGLSVQTYSSWPRMVFAICWLAYKKGVGDLSFCKKEWDNLVKNGMVWDQPSRINGYNGKAEMNYLDHYIGSPSPWSFLFLEHHHHHH,not soluble
6,MSLNKKVDIRHIFISSQERGKEEAKKLADEIYNRLKNNEDFETLAKQYSDDEKTKESGGVITELRAGFNEAVFDNAVFTAEAGQLLEPIEVARGYEIVYVDKVTDFYRTRDEYAELLTVDKFMQSDAYKEWFEEYKKNYDIEITDPAMKAFRLFREKQYNEAGALYEELYKSEKDAYYIEMACEAYKLAENWAGLIEAGKLAVKENPDFVNYYLYQAEGEFKVGDANKAKELLKEAEKKAGDNTYFLDLIRKMYESQGLAEDVERIDRKFQEISEKLKGEGHHHHHH,soluble
7,IHTSPYSKDAPLVASLSVNQKITGRNSEKDVRHIEIDLGDSGLRYQPGDALGVWYQNDPALVKELVELLWLKGDEPVTVEGKTLPLNEALQWHFELTVNTANIVENYATLTRSETLLPLVGDKAKLQHYAATTPIVDMVRFSPAQLDAEALINLLRPLTPRLYSIASSQAEVENEVHVTVGVVRYDVEGRARAGGASSFLADRVEEEGEVRVFIEHNDNFRLPANPETPVIMIGPGTGIAPFRAFMQQRAADEAPGKNWLFFGNPHFTEDFLYQVEWQRYVKEGVLTRIDLAWSRDQKEKVYVQDKLREQGAELWRWINDGAHIYVCGDANRMAKDVEQALLEVIAEFGGMDTEAADEFLSELRVERRYQRDVY,soluble
8,MKKPIILRKRYIPDEVIDISGDELVFRSEDLLITKWNPIRKRPDISGGISFTFLKEGYKASKFFGPSGEFKYWYCDIIKVLYDEDEDKYTLVDLLLDVKIMPDGRVEVLDADELAEALKNNIISKEEACMCLSILDKILKMAYSGKFPPEICLKDY,soluble
9,MTQPLVGKQILIVEDEPVFRSLLDSWFSSLGATTALAGDGVDALELMGRFTPDLMICDIAMPRMNGLKLVENLRNRGDQTPILVISATENMADIAKALRLGVEDVLLKPVKDLNRLRETVFACLYPNMFNSRVEEEERLFRDWDAMVSNPTAAAQLLQELQPPVQQVISHCRINYRQLVSADQPGLVLDIAPLSDNELAFYCLDVTRAGDNGVLAALLLRALFNGLLQDQLGQQKHRLPELGALLKQVNHLLRQANLPGQFPLFVGYYHSELKNLILVSAGLNATLNTGAHQVQISSGVPLGTLGNAYLNQLSQRCDSWQCQIWGAGGRLRLMLSAE,not soluble
10,MAHHHHHHMGGGGSIPRKKATSARQVSTDRSVRRLQTKRRVGEPRFNGIGYVTIPLCIQEDLPPPPEDDDAPDDSTRKFAWFVEDLDMPGEWELYPPDACERLDEARRSNMTECLVVVKKRMCTVNLVKMEHLCAGSNARPRQVKRVEVEVSNGTTTYQEKRKVPNDPFAEDSPRETPSPMELFESEENAVHDVGSATTTKAEPEKVPNLVRSILTEKTTSYAMSLTSNGTTVFSGTKAQMLRWDLKTAEVTAEFDVQDSVVLSNALSHDERHVVAGRSDCTASMHSVDGSTSCVFSGHQRKVYGVDFLLGDDRVATASMDCTVRIWDASTSTCVQTIGCSAASVFTVVTSDLNNHFALSAGDDNIIYAHDLRSGGDCVIDRFIDHASTVWCCALRNDEQVFASCGIDGVIRVWDIRNSSSPTLLLRHHEKPVHMVKFTPRGRAILSCGRDDNMRLTDAMTGEPLWRAVAHRRFVYRIAFSKEKKFILSSGGDHRVNVWNYDYIDRM,not soluble
11,VRILVTGGVRSGKSTHAEALLGDAADVVYVAPGRPAAGSDPDWDARVALHRARRPPTWLTVETADVATALSEARSPVLVDCLGTWLTAIMDGEALWSAATADVYAVLEARLDGLCAALTGLPTAIVVTNEVGLGVVPSHSSGVLFRDLLGTINRRVAAVCDEVHLVIAGRVLKL,soluble
12,MVKAEFGLYSATGGRVLVWLEQIHVQPLELLSTDERIRRQSIGVTILWNNILVMIQCDGNILPQKHQGFYRFHCEFQQRSLHTAEHLMSFMDEGS,not soluble
13,MGSDKIHHHHHHMACVRDKPVSGPPTSLSAPHLRISLAFRGGLCPYSRARPEKDYAFKGNFVLRDLIANGQSMRTISLPRGRQRLHAMPTSTGYEVREDEIYDWDGRKRGQTPFTVLQHTISGTGRLRYENRNYRLQENDTLLVLVPHNHRYWLASDERWEYFWISMNGEEALRIHKSILSISGPVFRLKPATIDHLADCSLRLINGAASAGAASAIAYEAAMALYDDVFGSHAFAEKLSAMQPVIDHINANLDRPLPVADLVQISGLSRAHFSRCFAESEGLPPAEFVLQQRLQRAAKLLTKADFLPVKEVAILCGFEDANYFSKVFRRLYGTTPSQFRTTGMYANLRTPARRGVRVSDDET,not soluble
14,MGSDKIHHHHHHMQKLTRINDFNEVLNSRKSVKVFDENYKIPREEMDEIITKATKAPSSVNMQPWRIAVVQSDEMKEKVKESFGFNSRQLTTSSAMLIIFGDLQNYEKAEQIYGDAVEQQLMTEDIKAQLLDWILPYYKNLSREGMKDIVNIDSSLMAMQLMLTAKAHGYDTNPIGGFDKENIADIIGYDSDRYVPVLAIAIGKKAQDAHDSVRLPIDDVREFL,not soluble
